Results: article doi:10.1101/2024.06.26.600905 (bioRxiv, 2024)
Where no end group is shown, it is not given here. [ ]: non-standard residue; d: D form. pY = N[C@@H](Cc1ccc(OP(=O)(O)O)cc1)C(=O)O; TOTD membrane = not defined here; pS = N[C@@H](COP(=O)(O)O)C(=O)O

target: His6-SPAK CCT (mouse SPAK 459-556) (mouse) (UniProt Q9Z1W9); experiment: fluorescence polarisation

Chain of His6-OSR1 CCT (human OSR1 433-527) (from UniProt O95747 433-527) (domain or fragment) (O95747 433-527): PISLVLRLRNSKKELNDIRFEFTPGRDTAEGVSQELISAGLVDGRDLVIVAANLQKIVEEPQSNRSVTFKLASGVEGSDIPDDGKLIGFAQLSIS

Ki [µM]	fold decrease in affinity relative to wild type [fold]	Molecule
7.2	–	hWNK4 1012-1024 wild type peptide …
–	3.1	hWNK1 1253-1265 R1257A peptide …
–	11	SAGHAFIVSPVPE [hWNK1 1253-1265 peptide, arginines replaced with histidine-alanine]
–	1.5	SAGARFIVSPVPE [hWNK1 1253-1265 peptide, first arginine of RRF to alanine]
4.2	–	SAGKKFIVSPVPE [hWNK1 1253-1265 peptide, arginines replaced with lysine-lysine]
–	7	SAGHHFIVSPVPE [hWNK1 1253-1265 peptide, arginines replaced with histidine-histidine]

target: NH3+-NLVGRF-[DAP-FAM]-VSPVPE-COO- fluorescent probe peptide (human); experiment: fluorescence polarisation

Kd [µM]	fold decrease in affinity relative to wild type [fold]	Molecule
0.67	–	His6-SPAK CCT (mouse SPAK 459-556) (from UniProt Q9Z1W9 459-556) (domain or fragment)
–	50	purified SPAK CCT domain D477Q (domain or fragment)
1.5	–	His6-OSR1 CCT (human OSR1 433-527) (from UniProt O95747 433-527) (domain or fragment)

target: His6-SPAK CCT (mouse SPAK 459-556) (mouse) (UniProt Q9Z1W9); experiment: fluorescence polarisation; remark: another data set of the same source

fold decrease in affinity relative to wild type [fold]	Ki [µM]	Molecule
2.5	–	SAGRRFIV[pS]PVPE [hWNK1 1253-1265 peptide phosphorylated on serine at the +3 position]
–	2.5	H-SAGRRFIVSPVPE-OH [hWNK1 1253-1265 wild type peptide NH3+-…-COO-]

target: T1, His6-OSR1 CCT (human OSR1 433-527) (human, UniProt O95747 433-527); experiment: peptide or protein array
T1 sequence (O95747 433-527): as above

binding result	Molecule
binds	Ac-QLVGRFQVTSSKE-{TOTD membrane} (reading uncertain) [hWNK4 1012-1024 wild type peptide QLVGRFQVTSSKE on the peptide array membrane]

target: T1, His6-OSR1 CCT (human OSR1 433-527); experiment: fluorescence polarisation

binding result	fold decrease in affinity relative to wild type [fold]	Ki [µM]	Molecule
–	~2.5	–	SAGRRFIV[pS]PVPE [hWNK1 1253-1265 peptide phosphorylated on serine at the +3 position]
binds	–	–	SAGRRFIVSAAPE [hWNK1 1253-1265 peptide, proline and valine to alanines at +4/+5]
–	11	–	SAGHAFIVSPVPE [hWNK1 1253-1265 peptide, arginines replaced with histidine-alanine]
–	~1.5	–	SAGARFIVSPVPE [hWNK1 1253-1265 peptide, first arginine of RRF to alanine]
binds	–	–	SAGAKFIVSPVPE [hWNK1 1253-1265 peptide, arginines replaced with alanine-lysine]
–	~3.1	–	SAGRAFIVSPVPE [hWNK1 1253-1265 R1257A peptide SAGRAFIVSPVPE]
binds	–	–	SAVARFIVSPVPE [hWNK1 1253-1265 peptide, -3 glycine and -2 arginine to valine-alanine]
–	–	16.3	SAGKKFIVSPVPE [hWNK1 1253-1265 peptide, arginines replaced with lysine-lysine]
binds	–	–	SAGAHFIVSPVPE [hWNK1 1253-1265 peptide, arginines replaced with alanine-histidine]
–	~7	–	SAGHHFIVSPVPE [hWNK1 1253-1265 peptide, arginines replaced with histidine-histidine]
binds	–	–	SAGKAFIVSPVPE [hWNK1 1253-1265 peptide, arginines replaced with lysine-alanine]
binds	–	–	SAAARFIVSPVPE [hWNK1 1253-1265 peptide, -3 glycine and -2 arginine to alanine-alanine]

More lines, now with the values behind:

Molecule	binding result	fold decrease in affinity relative to wild type [fold]	Ki [µM]
LRRRNFKVMI[pY]QD [p-Tyr156 Cavin1 peptide (Cavin1 146-158)]	binds	–	–
LRRRNFKVMIYQD [Cavin1 146-158 motif peptide]	binds	–	–
QLVGRFQVTSSKE [hWNK4 1012-1024 wild type peptide QLVGRFQVTSSKE]	–	–	12.9
QLVGRFAVTSSKE [hWNK4 1012-1024 peptide, glutamine to alanine at the +1 position]	binds	–	–
QLVGRFQITSSKE [hWNK4 1012-1024 peptide, valine to isoleucine at the +2 position]	binds	–	–
QLVSRFQVTSSKE [hWNK4 1012-1024 peptide, glycine to serine at the -2 position]	binds	–	–
QLVGRFQLTSSKE [hWNK4 1012-1024 peptide, valine to leucine at the +2 position]	binds	–	–
QLVGRFQVASSKE [hWNK4 1012-1024 peptide, threonine to alanine at the +3 position]	binds	–	–
H-SAGRRFIVSPVPE-OH [hWNK1 1253-1265 wild type peptide NH3+-SAGRRFIVSPVPE-COO-]	–	–	5.1
